Columns and labels:
SL 7838 = experiment: Effect of prodrugs on the delivery strain SL 7838; details: CB 1954 15 μM
Excerpt: We tested the S. typhimurium strain 7838 (SL 7838), transformed with different plasmids (see Methods), as a potential vehicle to attain this objective. IPTG was used to induce the wild type and mutant enzymes encoded by the plasmids. In these experiments, the prodrugs were activated by bacteria producing the specified enzymes instead of, as in previous experiments, the added enzymes.

ChrR = biological target: T1, ChrR (Escherichia coli, UniProt P0AGE6, E57D/G167S); format: biochemical, E. coli; details: CNOB versus CB 1954
T1 construct: made in house; host or cells: E. coli BL21 (DE3)
Excerpt: To evaluate if CNOB competes with CB 1954 on the active site of the enzyme we performed a competition assay.

HeLa cells [1] = experiment: Confocal imaging of CNOB reduction in HeLa cells infected with SL 7838 expressing GFP and Y6; format: cell-based, Human; details: HeLa cells infected with SL 7838 expressing GFP and Y6 (FIG. 8)
HeLa cells [2] = details: for HeLa cell killing by CNOB: CNOB as prodrug, pure protein (FIG. 7)
HeLa cells [3] = experiment: Cell survival assay using SL 7838 to deliver the wild type or evolved enzymes; format: cell-based, Human; details: for amount of bacteria required / killing of surface-adhered HeLa-luc cells: SL 7838 expressing the enzyme, 15 μM CB 1954, 1 h + 3 h incubation, luciferase read-out (FIG. 6)
Excerpt: Cell survival assay, using SL 7838 to deliver the wild type or evolved enzymes. SL 7838 contains deletions in the aroA and sopE genes. This strain is non-pathogenic in immunocompetent mice, but can colonize and persist in solid tumors. The strain was transformed with appropriate plasmids to express the yief (now chrR), nfsA or theY6 (now chrR6)-encoding yieFY6 gene. It was also transformed with a vector containing the lux operon, expressing the bacterial luciferase (product of the luxR gene) and its substrate. HeLa cells stably transfected to express firefly luciferase were added to black walled 96-well plates at a density of 1000 cells well^−1. Once the cells had attached, a dilution series of non-transformed SL 7838 or SL 7838 transformed with plasmids expressing the appropriate genes (Table 1) was added to the plates; 0.5 mM IPTG was added to induce the genes on the plasmids. After 1 h incubation, 15 μM CB 1954 was added. Light output per well produced from bacterial luciferase (no additional substrate added) or bacterial and firefly luciferase (following addition of 2 μl of 30 mg ml^−1 luciferin per well) was measured on an IVIS50 system (Xenogen Corp.). Percentage HeLa cell survival was determined by calculating firefly luciferase expression (total light output—bacterial light output) relative to wells containing unchallenged HeLa cells or HeLa cells treated with 70% ethanol. All experiments were performed at least in triplicate; error bars in the figures are SEM.
SL 7838 as a delivery vehicle to tumor cells. […] We tested the S. typhimurium strain 7838 (SL 7838), transformed with different plasmids (see Methods), as a potential vehicle to attain this objective. IPTG was used to induce the wild type and mutant enzymes encoded by the plasmids. […]
Further analysis was performed to test the efficiency of SL 7838 to deliver the enzymes to surface-adhered HeLa cells. […] After a further 3 h incubation period the firefly luciferase substrate (luciferin) was added, and the light output was used to quantify HeLa cell survival (FIG. 6).

HeLa cells [4] = experiment: Viability test: prodrug activated by purified enzyme, loss of HeLa cell viability
Procedure: Viability tests. As mentioned in the Results section, these involved two incubation periods, prodrug activation, followed by assay of the toxic moiety generated by determining the loss of HeLa cell viability. […] Following prodrug reduction at 37° C., 0.5 ml of fresh HeLa cells (˜0.5-1×10^5) were added. The duration of the prodrug reduction was 30 min in all experiments; the HeLa cell exposure periods were as specified in the text. After the latter incubation, 20 μl of the color reagent, CellTiter 96®AqueousOne (PROMEGA Inc) were added to 100 μl aliquots of the reaction mixture. Following an additional 1 h of incubation, A490 was measured in a BioTek microplate S330 reader.
Prodrug activation by wild type YieF and the evolved enzymes. […] The experiments involved two incubation periods. In the first period, the enzyme and the drug were incubated to generate the toxic species; in the second period, which was initiated with the addition of HeLa cells to the reaction mixture, the extent of drug activation was inferred from the loss of HeLa cell viability. In the experiments described in this section, both the prodrug reduction and the subsequent cell exposure periods were of 30 min duration, and the enzyme and drug concentrations were 50 μg ml^−1 and 15 μM, respectively. […]

Molecule: NC(=O)c1cc(N2CC2)c([N+](=O)[O-])cc1[N+](=O)[O-] [CB 1954, 5-aziridinyl-2,4-dinitrobenzamide]
- effect on replication of SL7838 (SL 7838): did not inhibit replication

Molecule: O=c1c(Cl)c2oc3cc([N+](=O)[O-])ccc3nc-2c2ccccc12 [CNOB]
- mode of inhibition in competition assay (ChrR): competitive inhibitors of each other
- bystander effect (red fluorescence in uninfected cells) (HeLa cells [1]): effective bystander effect
- prodrug efficiency in in vitro cytotoxicity assays (HeLa cells [2]; compared with CB1954): same efficiency as CB1954

B1: Y6: evolved YieF enzyme with four substitutions: V120A, Y128N, T160N and Q175L (protein, UniProt P0AGE6 1-188, looked up, variant V120A Y128N T160N Q175L)
Quinone reductase: MSEKLQVVTLLGSLRKGSFNGMVARTLPKIAPASMEVNALPSIADIPLYDADVQQEEGFPATVEALAEQIRQADGVVIVTPEYNYSVPGGLKNAIDWLSRLPDQPLAGKPVLIQTSSMGAIGGARCQNHLRQILVFLDAMVMNKPEFMGGVIQNKVDPQNGEVIDQGTLDHLTGLLTAFGEFIQRVKI
- amount of bacteria required / killing of surface-adhered HeLa-luc cells (HeLa cells [3]): at least an order of magnitude less bacteria
- reduction in survival of HeLa cells (HeLa cells [3]; in the presence of CB 1954 (15 μM), enzyme expressed by SL 7838 bacteria, IPTG induced (FIG. 5)): 90%
- HeLa cell killing by CNOB (HeLa cells [2]): more active
- greater reduction in HeLa cells survival compared to the controls (HeLa cells [4]; 15 μM MMC or CB 1954, 50 μg ml^−1 enzyme (FIG. 1)): ~90%
- activity for prodrug reduction relative to wild type (HeLa cells [4]; MMC or CB 1954 (FIG. 1)): improved activity for prodrug reduction

B2: YieF: native E. coli NAD(P)H oxidoreductase ChrR (formerly called YieF), SEQ ID NO:1 (protein)
chain: MSEKLQVVTLLGSLRKGSFNGMVARTLPKIAPASMEVNALPSIADIPLYDADVQQEDGFPATVEALAEQIRQADGVVIVTPEYNYSVPGGLKNAIDWLSRLPDQPLAGKPVLIQTSSMGVIGGARCQYHLRQILVFLDAMVMNKPEFMGGVIQNKVDPQTGEVIDQSTLDHLTGQLTAFGEFIQRVKI
modifications: E. coli
- amount of bacteria required / killing of surface-adhered HeLa-luc cells (HeLa cells [3]): scarcely greater than seen in controls
- HeLa cell killing by CNOB (HeLa cells [2]): significant increase of cell killing compared to the control

Reference: patent US7687474B2, “Nitroreductase enzymes” (The Board of Trustees of the Leland Stanford Junior …, priority 2005, dated 2010)
